Test [1] addresses NGF (species not stated) (Homo sapiens (Human)) (UniProt P01138). The test can be described thus: cell-based or functional assay.
Test [2] shares this target. The test can be described thus: SPR, Biacore 8K; captured on Protein A chip, NGF in solution (the table does not say human or rat). Background: Surface plasmon resonance follows binding to a sensor surface in real time, without labels.
Test [3] concerns the target T1, human Nerve Growth Factor (human, UniProt P01138 122-241). Briefly: cell-based or functional assay.
Test [4] has as its target NGF (species not stated) (Homo sapiens (Human)) (UniProt P01138). Briefly: cell-based or functional assay. The source holds these as a separate data set.
The target of test [5] is T1, human Nerve Growth Factor. Briefly: SPR, Biacore 8K; captured on Protein A chip, hNGF in solution, multi-cycle kinetics.

Like-named read-outs stand apart in the source and are kept apart here.

T1 sequence (P01138 122-241 limits assumed): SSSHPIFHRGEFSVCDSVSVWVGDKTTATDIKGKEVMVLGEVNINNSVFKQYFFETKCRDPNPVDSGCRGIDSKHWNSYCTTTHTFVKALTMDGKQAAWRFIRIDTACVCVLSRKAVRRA

The term Kd denotes the free concentration of one partner at which half of the binding sites on the other are occupied at equilibrium, for simple one-to-one binding. A lower Kd goes with tighter binding. In test [1], “PetML308 (Human p75NTR ECD full stalk IgG1) (Fc fusion)” came in with a Bottom (%), best-fit values, PathHunter TrkA activation assay of 44.5%; an IC50 (nM), PathHunter TrkA activation assay of 282 nM; a Top (%), best-fit values, PathHunter TrkA activation assay of 105%. The molecule further yielded a Kd in test [2] of 8.78 nM.

For “PetML319 (Human p75NTR ECD no stalk IgG1) (Fc fusion)”, in test [1], the Bottom (%), best-fit values, PathHunter TrkA activation assay came to 9.5% and the IC50 (nM), PathHunter TrkA activation assay was determined as 8.04 nM. Further, the Kd in test [2] is 0.358 nM.

B1: Bedinvetmab (antibody, V domains shown)
VH: EVQLVESGGDLVKPGGSLRLSCVASGFTFSSHGMHWVRQSPGKGLQWVAVINSGGSSTYYTDAVKGRFTISRDNAKNTVYLQMNSLRAEDTAMYYCAKESVGGWEQLVGPHFDYWGQGTLVIVSS
VL: QSVLTQPTSVSGSLGQRVTISCSGSTNNIGILGASWYQLFPGKAPKLLVYGNGNRPSGVPDRFSGADSGDSVTLTITGLQAEDEADYYCQSFDTTLGAHVFGGGTHLTVL
B1: in test [3], the “IC50 (nM), TF-1 cell proliferation inhibition” value was determined as 0.89 nM and the “ICMAX (%), TF-1 cell proliferation inhibition” value turned out to be 96.8%. In test [4], this molecule yielded a Bottom (%), best-fit, PathHunter TrkA activation assay of 5.35%; an IC50 (nM), PathHunter TrkA activation assay of 4.24 nM; a Top (%), best-fit, PathHunter TrkA activation assay of 123%; a maximal TrkA inhibition, PathHunter TrkA activation assay of 100%. In test [1], this molecule came in with a Bottom (%), best-fit values, PathHunter TrkA activation assay of 2.11%; an IC50 (nM), PathHunter TrkA activation assay of 1.14 nM; a Top (%), best-fit values, PathHunter TrkA activation assay of 93.5%. In test [5], this molecule gave a Kd of 0.0073 nM. In test [2], this molecule gave a dissociation constant Kd of 0.0073 nM.

The record behind these values is patent US20240270817A1 (PETMEDIX, published 2024).
